Data on two molecules can be found in publication PMC7318607.

For the data set, the target named is GST-OGG1 wt (UniProt O15527 1-345). In words: EMSA. In general terms: In EMSA bound probe runs differently from free probe, usually more slowly.
GST-OGG1 wt, sequence (O15527 whole entry): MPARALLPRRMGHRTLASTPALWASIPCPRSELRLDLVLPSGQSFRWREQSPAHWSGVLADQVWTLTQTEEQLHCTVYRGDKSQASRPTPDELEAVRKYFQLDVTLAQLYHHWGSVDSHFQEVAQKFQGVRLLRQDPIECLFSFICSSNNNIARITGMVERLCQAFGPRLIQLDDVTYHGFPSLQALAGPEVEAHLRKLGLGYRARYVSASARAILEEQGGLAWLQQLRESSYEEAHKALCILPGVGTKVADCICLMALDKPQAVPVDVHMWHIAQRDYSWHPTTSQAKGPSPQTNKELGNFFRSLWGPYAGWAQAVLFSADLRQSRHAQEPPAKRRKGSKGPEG

B1: G2 probe (8-oxoG) (dsDNA)
DNA 1: CGATGTCTGGAAAAGCCCGGGGACCAGGGAA
DNA 2: TTCCCTGGTCCCCGGGCTTTTCCAGACATCG
modifications: 8-oxoG at position 27 of strand 1 (antisense)
As for B1, the binding result is “binds”.

B2: Cy5 probe (8-oxoG) (dsDNA)
DNA 1: AGAGAAGAAGAAGAAGAGATGGGTTATTCGAACTAGC
DNA 2: GCTAGTTCGAATAACCCATCTCTTCTTCTTCTTCTCT
modifications: 8-oxoG at position 16 of strand 1
With B2, the binding result is recorded as “binds”.
